Values quoted from earlier work as cited in article PMC12583094, “A novel antioxidant peptide from black soybean [Glycine max (L.) Merr.] with verified MPO interaction and multi-scale antioxidant activity” (Frontiers in Nutrition, 2025).

Tested on: MPO
Source text: The RU values increased from approximately 0.79 RU to around 24.51 RU with increasing concentrations.

B1: ceruloplasmin: a physiological MPO inhibitor (protein, UniProt P00450 20-1065, looked up)
Ceruloplasmin: KEKHYYIGIIETTWDYASDHGEKKLISVDTEHSNIYLQNGPDRIGRLYKKALYLQYTDETFRTTIEKPVWLGFLGPIIKAETGDKVYVHLKNLASRPYTFHSHGITYYKEHEGAIYPDNTTDFQRADDKVYPGEQYTYMLLATEEQSPGEGDGNCVTRIYHSHIDAPKDIASGLIGPLIICKKDSLDKEKEKHIDREFVVMFSVVDENFSWYLEDNIKTYCSEPEKVDKDNEDFQESNRMYSVNGYTFGSLPGLSMCAEDRVKWYLFGMGNEVDVHAAFFHGQALTNKNYRIDTINLFPATLFDAYMVAQNPGEWMLSCQNLNHLKAGLQAFFQVQECNKSSSKDNIRGKHVRHYYIAAEEIIWNYAPSGIDIFTKENLTAPGSDSAVFFEQGTTRIGGSYKKLVYREYTDASFTNRKERGPEEEHLGILGPVIWAEVGDTIRVTFHNKGAYPLSIEPIGVRFNKNNEGTYYSPNYNPQSRSVPPSASHVAPTETFTYEWTVPKEVGPTNADPVCLAKMYYSAVEPTKDIFTGLIGPMKICKKGSLHANGRQKDVDKEFYLFPTVFDENESLLLEDNIRMFTTAPDQVDKEDEDFQESNKMHSMNGFMYGNQPGLTMCKGDSVVWYLFSAGNEADVHGIYFSGNTYLWRGERRDTANLFPQTSLTLHMWPDTEGTFNVECLTTDHYTGGMKQKYTVNQCRRQSEDSTFYLGERTYYIAAVEVEWDYSPQREWEKELHHLQEQNVSNAFLDKGEFYIGSKYKKVVYRQYTDSTFRVPVERKAEEEHLGILGPQLHADVGDKVKIIFKNMATRPYSIHAHGVQTESSTVTPTLPGETLTYVWKIPERSGAGTEDSACIPWAYYSTVDQVKDLYSGLIGPLIVCRRPYLKVFNPRRKLEFALLFLVFDENESWYLDDNIKTYSDHPEKVNKDDEEFIESNKMHAINGRMFGNLQGLTMHVGDEVNWYLMGMGNEIDLHTVHFHGHSFQYKHRGVYSSDVFDIFPGTYQTLEMFPRTPGIWLLHCHVTDHIHAGMETTYTVLQNEDTKSG
- binding to MPO by SPR: clear dose-dependent binding effect
